Measured values reported in article PMC3589550 (Nature structural & molecular biology, 2011).
Entries after “also recorded” stand apart in the source; their conditions may differ.

Columns and labels:
p53 = p53 ubiquitination on vIRF4 expression; assay type: cell-based
HAUSP [1] = target: T1, HAUSP (Homo sapiens, UniProt Q93009); assay: In vitro deubiquitination; assay type: biochemical; settings: immunopurified Flag-HAUSP complexes, K48-linked 3–7 polyubiquitin chains
[2] = target: HAUSP TRAF domain (HAUSP^62–205) (Homo sapiens, UniProt Q93009); assay type: binding; settings: ITC
Sequence of HAUSP TRAF domain (HAUSP^62–205) (Q93009 62-205): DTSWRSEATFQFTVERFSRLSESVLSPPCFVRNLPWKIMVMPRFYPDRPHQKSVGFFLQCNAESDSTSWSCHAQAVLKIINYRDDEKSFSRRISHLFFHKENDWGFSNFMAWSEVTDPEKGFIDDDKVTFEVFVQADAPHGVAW

HAUSP [3] = target: T1, HAUSP; assay: Co-IP / GST pull-down of HAUSP; assay type: binding; settings: transfected 293T cells

T1 sequence (Q93009 whole entry, the tested form may be a part): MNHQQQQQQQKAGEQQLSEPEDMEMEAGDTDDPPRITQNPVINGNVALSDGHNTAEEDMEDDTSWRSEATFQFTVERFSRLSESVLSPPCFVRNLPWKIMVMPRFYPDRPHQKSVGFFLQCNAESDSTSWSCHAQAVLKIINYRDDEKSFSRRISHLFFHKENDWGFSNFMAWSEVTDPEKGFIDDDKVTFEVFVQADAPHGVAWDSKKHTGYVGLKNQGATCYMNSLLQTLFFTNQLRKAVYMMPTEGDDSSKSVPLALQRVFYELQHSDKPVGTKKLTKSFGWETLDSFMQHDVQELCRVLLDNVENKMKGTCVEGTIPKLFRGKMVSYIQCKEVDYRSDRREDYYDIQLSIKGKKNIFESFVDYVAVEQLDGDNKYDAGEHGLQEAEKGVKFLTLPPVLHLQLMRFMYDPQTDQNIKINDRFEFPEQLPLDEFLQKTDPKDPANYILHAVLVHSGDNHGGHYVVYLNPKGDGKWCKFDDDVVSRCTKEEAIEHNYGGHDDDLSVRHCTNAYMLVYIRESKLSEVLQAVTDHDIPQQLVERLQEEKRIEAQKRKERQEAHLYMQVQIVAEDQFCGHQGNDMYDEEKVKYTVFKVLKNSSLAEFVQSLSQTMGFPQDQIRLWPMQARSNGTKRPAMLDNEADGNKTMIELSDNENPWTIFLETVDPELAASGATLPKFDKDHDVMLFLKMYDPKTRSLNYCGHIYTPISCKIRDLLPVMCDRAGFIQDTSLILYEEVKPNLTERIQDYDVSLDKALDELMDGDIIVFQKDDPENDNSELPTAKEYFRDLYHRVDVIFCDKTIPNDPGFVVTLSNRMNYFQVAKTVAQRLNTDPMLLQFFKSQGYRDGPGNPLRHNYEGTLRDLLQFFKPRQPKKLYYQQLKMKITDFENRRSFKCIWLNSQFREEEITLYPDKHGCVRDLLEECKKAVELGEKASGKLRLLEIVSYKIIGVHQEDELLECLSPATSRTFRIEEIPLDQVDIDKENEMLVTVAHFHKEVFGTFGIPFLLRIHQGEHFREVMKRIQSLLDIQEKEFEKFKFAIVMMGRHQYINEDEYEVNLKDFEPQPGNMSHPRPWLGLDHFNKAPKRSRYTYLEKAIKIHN

B1: vIRF4: KSHV viral interferon regulatory factor 4 (protein)
chain: MPKAGGSEWATLWIIDALENNKFPYFSWFDRNNLLFAAPAPLPAGSDIPPGWYSVYHAFDEECDRVYGPSPVVGQTVYGRFGRLLRGTRRAVVRNDLRYSDTFGGSYVVWQLVRTPFKNCTYCYGAAYGPEKLQRFIQCLLSPPMQTTATRRSDTREQSYEEAGAAAPAPPKAPSGLRGRPRKSNRYYNVGDITTEQKAACSVWIPVNEGASTSGMGSSGTRQVTQASSFTWRVPGDPPAPSTLTGPSDPHSSGAGLPGTAPPKPQHETRLAGTVSGVSGVAQTPGDTGQLAPPMRDGSRLPSTSPWIPACFPWGDLPVTGWWPQGASGLPEKVHPPTTGQFDPLSPRWTYTGIPSSQLNPAAPSWIPPHAQAGTFVGEFSQGAPLAPQGLLPQSGQCASAWLPRRETGAEGACGASTEGRAPQGAASERVYPFEPQPPSAPAPGYAKPSCYNWSPLAEPPATRPIRAPVWHPPVGHAVVPEVRTPLWIPWSSGGAPNQGLSHTQGGASATPSAGAPPTPEVAERQEPSSSGIPYVCQGDNMATGYRRVTTSSGALEVEIIDLTGDSDTPSTTVASTPLPVSGPRVFQPTVLYSAPEPAVNPEVSHLPTELERRECVCPGSGERPRVPLVSTYAGDRYAVGGYGPEQSLVPPPLGLPLTLSNLQGEDICTWEEGLGNILSELQEEPSSSTRQATDRRRPRSRSPHGRRTPVSHSGPEKPPSKMFFDPPDSQRVSFVVEIFVYGNLRGTLRREGDAGEAMLCSWPVGDTLGHLCQSFVPELLRIPRLTVPSPEQMEILNRVFEGLGHGFPIFCSMSGIYSRNATQVEGWWFGNPNSRYERILRSFSPRVPQQLFNTARYLATTAAIPQTPLSVNPVTCGTVFFGASPASTENFQNVPLTVKIFIGSIWDSLH
modifications: left off: V5, end not stated, kept
With B1 the p53 ubiquitination (p53) was “markedly induced p53 ubiquitination” and the “HAUSP DUB activity” value (HAUSP [1]) was “effectively suppressed HAUSP DUB activity in a binding-dependent manner”.

B2: vIRF4^153–256/Δ202–216: vIRF4^153–256 with residues 202–216 deleted (protein)
chain: SDTREQSYEEAGAAAPAPPKAPSGLRGRPRKSNRYYNVGDITTEQKAACGSSGTRQVTQASSFTWRVPGDPPAPSTLTGPSDPHSSGAG
In the case of B2, the “TRAF binding affinity, in words” value [2] is reported as “significant reduction of TRAF binding affinity”.

B3: vIRF4^153–256: central region fragment of vIRF4, residues 153–256 (protein)
chain: SDTREQSYEEAGAAAPAPPKAPSGLRGRPRKSNRYYNVGDITTEQKAACSVWIPVNEGASTSGMGSSGTRQVTQASSFTWRVPGDPPAPSTLTGPSDPHSSGAG
In the case of B3, the “fold higher TRAF affinity (C-terminally extended)” value ([2]; compared with vIRF4^153–216 / vIRF4^202–216) is reported as 7 fold and the “interaction with HAUSP” value (HAUSP [3]) is reported as “specifically interacts with; also recorded: sufficient to bind to HAUSP”.

B4: vIRF4^153–256/Δ202–216/Δ237–256: vIRF4^153–256 with residues 202–216 and 237–256 deleted (protein)
chain: SDTREQSYEEAGAAAPAPPKAPSGLRGRPRKSNRYYNVGDITTEQKAACGSSGTRQVTQASSFTWRVPG
For B4, the “TRAF binding affinity, in words” value [2] was “had no further effect”.
